Reference: patent US20250101071A1 (PAUL EHRLICH INSTITUT BUNDESINSTITUT F R IMPFSTOFFE UND …, published 2025)

B1: recombinant human CD32a extracellular domain with C-terminal His-tag, biotinylated (H167R) (receptor)
chain: QAAAPPKAVLKLEPPWINVLQEDSVTLTCQGARSPESDSIQWFHNGNLIPTHTQPSYRFKANNNDSGEYTCQTGQTSLSDPVHLTVLSEWLVLQTPHLEFQEGETIMLRCHSWKDKPLVKVTFFQNGKSQKFSRLDPTFSIPQANHSHSGDYHCTGNIGYTLFSSKPVTITVQVPSMGSSSPMG
notes: also called CD32a-His; recombinant CD32a protein; not shown: C-terminal His-tag

Experiments:
Experiment in all cases: SPR, Biacore T200, biotinylated CD32a on neutravidin chip, DARPin as analyte
[1] = target: DARPin 52.H6
[2] = target: DARPin 53.2.F11
[3] = target: DARPin 53.H3
[4] = target: DARPin 53.2F11[TEV]
[5] = target: DARPin 53.C8
[6] = target: DARPin 53.D8
[7] = target: B1

Measured: Kd

B1
not listed: [7]
< 2 nM: all other assays above

B2: DARPin 53.A8 (designed binder)
chain: DLGKKLLEATRAGQDDEVRILMANGANVNATDEEGLTPLHLAALDGHLEIVEVLLKYGADVNADDMHGPTPLHLAAYAGHLEIVEVLLKYGADVNAYDCGGHTPLHLAARLGHLEIVEVLLKYGADVNAQDKFGKTPFDLAIDNGNEDIAEVLQKAA
< 2 nM: [7]
